Measurements from PMC5933801, “Cryo-EM structure of infectious bronchitis coronavirus spike protein reveals structural and functional evolution of coronavirus spike proteins” (PLoS Pathogens, 2018).

Target: the molecule itself
Assay: cryo-EM structure; IBV spike ectodomain 0.35 mg/ml in 2 mM Tris pH7.2 and 20 mM NaCl, plunge-frozen; pre-fusion state; three-fold noncrystallographic symmetry constraints in refinement

B1: IBV spike ectodomain (avian infectious bronchitis coronavirus, strain M41) (domain or fragment)
chain: LYDSSSYVYYYQSAFRPPNGWHLHGGAYAVVNISSESNNAGSSPGCIVGTIHGGRVVNASSIAMTAPSSGMAWSSSQFCTAHCNFSDTTVFVTHCYKYDGCPITGMLQKNFLRVSAMKNGQLFYNLTVSVAKYPTFKSFQCVNNLTSVYLNGDLVYTSNETTDVTSAGVYFKAGGPITYKVMRKVKALAYFVNGTAQDVILCDGSPRGLLACQYNTGNFSDGFYPFINSSLVKQKFIVYRENSVNTTFTLHNFTFHNETGANPNPSGVQNILTYQTQTAQSGYYNFNFSFLSSFVYKESNFMYGSYHPSCNFRLETINNGLWFNSLSVSIAYGPLQGGCKQSVFSGRATCCYAYSYGGPSLCKGVYSGELDLNFECGLLVYVTKSGGSRIQTATEPPVITRHNYNNITLNTCVDYNIYGRTGQGFITNVTDSAVSYNYLADAGLAILDTSGSIDIFVVQGEYGLTYYKVNPCEDVNQQFVVSGGKLVGILTSRNETGSQLLENQFYIKITNGTRRFRRSITENVANCPYVSYGKFCIKPDGSIATIVPKQLEQFVAPLLNVTENVLIPNSFNLTVTDEYIQTRMDKVQINCLQYVCGNSLDCRDLFQQYGPVCDNILSVVNSIGQKEDMELLNFYSSTKPAGFNTPFLSNVSTGEFNISLLLTTPSSPRRRSFIEDLLFTSVESVGLPTDDAYKNCTAGPLGFLKDLACAREYNGLLVLPPIITAEMQTLYTSSLVASMAFGGITAAGAIPFATQLQARINHLGITQSLLLKNQEKIAASFNKAIGRMQEGFRSTSLALQQIQDVVNKQSAILTETMASLNKNFGAISSVIQEIYQQLDAIQANAQVDRLITGRLSSLSVLASAKQAEHIRVSQQRELATQKINECVKSQSIRYSFCGNGRHVLTIPQNAPNGIVFIHFSYTPDSFVNVTAIVGFCVKPANASQYAIVPANGRGIFIQVNGSYYITARDMYMPRAITAGDIVTLTSCQANYVSVNKTVITTFVDNDDFDFNDELSKWWNDTKHELPDFDKFNYTVPILDIDSEIDRIQGVIQGLNDSLIDLEKLS
modifications: glycans N-linked to 20 sites
notes: Spike protein of avian infectious bronchitis coronavirus (IBV) strain M41, GenBank ABI26423.1, ectodomain residues 20-1084; transmembrane anchor and intracellular domain replaced by GCN4 and His6 tags; The structural model holds residues 21-1022 except 702-710; The GCN4 tag is a trimerization tag; also called trimeric IBV spike ectodomain; source: Sf9 insect cells (Bac-to-Bac), harvested from …
stoichiometry N: 3
